Data from the supplement of paper PMC12764529.
± gives the half width of the 95% confidence interval.

Columns and labels:
[1] = folding stability dG unfold from trypsin proteolysis; higher = more stable
Outline: (§1)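 Bayesian fitting of sequencing counts gave K50 for each design. Unfolding free energy followed by setting this against a sequence-predicted unfolded-state K50 and a shared folded-state K50, either per protease or with trypsin and chymotrypsin combined. The designs, under 80 residues and lacking cysteine, were digested in a PA-tagged cDNA display format at 11 threefold-diluted protease concentrations and without protease, and only those with AlphaFold2 dimer inter-PAE above 15 were kept.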

[2] = folding stability dG unfold from chymotrypsin proteolysis; higher = more stable
Outline: as §1

[3] = folding stability dG unfold (combined trypsin and chymotrypsin); higher = more stable
Outline: as §1

Row | Sequence | folding stability dG unfold [1] | folding stability dG unfold [2] | folding stability dG unfold [3]
1 | SAGGSAGGSAGGSIVVRITPNPETGTVTIDVYRVLPPGVLRPGAGFTVPLSLIPPGAVVGSAGGSAGGSAGG [r7_455_TrMRF] | 0.973 ± 0.018 kcal/mol | 1.17 ± 0.047 kcal/mol | 1.09 ± 0.053 kcal/mol
2 | SAGGSAGGMEEIVLPIPEEVAKELIASGTVTKTQTEGNRTILTKTPPSGGSTKITVVLPPSYPSSAGGSAGG [r6_654_JUSTAS] | 1.2 ± 0.095 kcal/mol | 1.24 ± 0.1 kcal/mol | 1.35 ± 0.17 kcal/mol
3 | SAGGSMSVEVEVLAKVKLPNGEEVTFPVRVTYNPETGEVTVEIDLPKEVFERLKELYPDGIIAPEPSAGGSA [r2_409_TrMRF] | 2.79 ± 0.11 kcal/mol | 3.5 ± 0.078 kcal/mol | 3.27 ± 0.048 kcal/mol
4 | SMVEIKVEKKEDGTVKITIVAPLEKAEEIAKKLAEELGKEVKIVKIEKKKVKVNGEERELVKIEIEIRLPSA [r9_431_TrROS_Hall] | 2.86 ± 0.28 kcal/mol | 2.23 ± 0.31 kcal/mol | 2.24 ± 0.78 kcal/mol
5 | SAGGSAGGSAGGMKLDVTIVGDGKVTTLPADSLEDVEETLKKLGLTLKSVDPATGTVTVASAGGSAGGSAGG [r7_726_JUSTAS] | 0.718 ± 0.051 kcal/mol | -0.0786 ± 0.54 kcal/mol | 0.305 ± 0.19 kcal/mol
6 | SAGGSAGGSGMMYKVTVEIYNPANGEKIGTIEREVTSEEEAKAEIEKELPLENVKVKITIEGPSAGGSAGGS [r12_578_JUSTAS] | 0.846 ± 0.084 kcal/mol | 0.818 ± 0.18 kcal/mol | 0.983 ± 0.25 kcal/mol
7 | SAMTVYYKITAEVEKTIGDTPETLTVPLTLTVPPDKLNEEEIKKIAEEKAKELGYTLKKIEISKTPSLPSAG [r14_278_JUSTAS] | 2.22 ± 0.084 kcal/mol | 2.06 ± 0.17 kcal/mol | 2.11 ± 0.21 kcal/mol
8 | SAGGMKLEILEKSENRIIIRTDEGKIYIAPEIVKKLKEKGGNIKPTLDEIIEWLEKNNIPAEDAVFGDSAGG [r13_610_TrMRF] | 0.689 ± 0.028 kcal/mol | 1.11 ± 0.064 kcal/mol | 0.915 ± 0.11 kcal/mol
9 | SAGGMTLTLTIKVKTTTVEKDAATGKETVRTETRTLTVTIEAESEEEALAALKKLLEELGFEIVEVTSAGGS [r16_459_TrROS_Hall] | 3.99 ± 0.27 kcal/mol | 5.1 ± 0.22 kcal/mol | 4.89 ± 0.28 kcal/mol
10 | SAYIQIERDPDGYIKIEVWFDSPDEGKEFVKEFVKELADQGLDIKIKVTKIEPYPGDPNMYRVSYTIKVSAG [r14_119_TrROS] | 2.76 ± 0.098 kcal/mol | 3.857 ± 0.038 kcal/mol | 3.52 ± 0.083 kcal/mol
11 | SAMKYTITVKGDIESVRNFLLDKLDFDIEVSSTPDGTTVITITMDEEKVSELKELLKAHPNFPTTVNKESAG [r14_521_JUSTAS] | 2.75 ± 0.086 kcal/mol | 4.12 ± 0.044 kcal/mol | 3.83 ± 0.11 kcal/mol
12 | SAGGSAGGSKPKEIETVTLKLTLKDPETGEEIEVTVELTRVRVDGKEYLILRVTDPDGKEIELSAGGSAGGS [r12_283_TrROS_Hall] | 3.13 ± 0.12 kcal/mol | 4.115 ± 0.039 kcal/mol | 3.81 ± 0.09 kcal/mol
13 | SAGGSAGGSKPVLVKVERKEVEVPLPDGTPGKVFVVKVTVLGENEPLAEKTYLFASEEEAKESSAGGSAGGS [r12_461_TrMRF] | 0.102 ± 0.076 kcal/mol | 0.761 ± 0.17 kcal/mol | 0.595 ± 0.13 kcal/mol
14 | SAGGSAGGSAGMITIYAPPSVPVEEVREEVKEKIKKENPNDPKEVKGVEVDPNGSLEELESAGGSAGGSAGG [r17_43_JUSTAS] | -0.286 ± 0.12 kcal/mol | -0.655 ± 0.31 kcal/mol | –
15 | SAGGDVGLEEKAREIAEELREEISKKLGVNVKVTEVKVEYDPKTGKYTVTVTITLPGGETITITVPESAGGS [r8_372_JUSTAS] | 3.85 ± 0.32 kcal/mol | 4.36 ± 0.54 kcal/mol | –
16 | SAGGSAGGSAGGKKKLKIKIEIKIEEKIKKTPNGKLEKEKKIEITKIIEIEPDSPLLKKLSAGGSAGGSAGG [r7_889_TrROS_Hall] | 2.17 ± 0.14 kcal/mol | 0.948 ± 0.29 kcal/mol | –
17 | SAGGKPKKKPPPVIEIVDIRVEYDPETKEVRITVKIRLPNGETLTLTITVPPGTTLEELLEKLKELLSSAGG [r13_578_TrROS_Hall] | 4.11 ± 0.61 kcal/mol | 2.71 ± 0.11 kcal/mol | –
18 | SAGGSAGGDPNKPPPPKQIEIPIPPDNITDVEPNPDGFYFMEFNLPDGDSITIIVYPDGNIHIMSAGGSAGG [r6_119_TrROS] | 2.83 ± 0.28 kcal/mol | 4.25 ± 0.34 kcal/mol | –
19 | SAGGSAGGSAGGTPFKAKDPKTDKVYLGEKDPVSGKVTITDPNTGNPIIVPGGEIEFIVSAGGSAGGSAGGS [r10_28_JUSTAS] | 0.00952 ± 0.041 kcal/mol | – | -0.282 ± 0.16 kcal/mol
20 | SAGGSAGGSAGMTISLSDLTKKGDIEKAKEEVEEIKKKNPEPKVEKVSVPPEKNEIYKLESAGGSAGGSAGG [r11_365_JUSTAS] | -0.308 ± 0.22 kcal/mol | – | < -1 kcal/mol
21 | SAPDNIKVDINIERNPEDGHIRVEMEIEYPDGNEVYHSAWIDPDNGKIEIDVQVPNGKQIAEETIQIKPSAG [r14_524_TrROS] | 0.166 ± 0.097 kcal/mol | – | < -1 kcal/mol
22 | SAGGSPIYVRIEWEPPGNGKEREKEIPIKNVDSPDQLVDEAKEEAMKDGGPIKDIEVYDPDDGRPFPLSAGG [r13_771_TrROS] | 0.598 ± 0.11 kcal/mol | – | -0.192 ± 0.53 kcal/mol
23 | SAKLTPEEIEELAEKLAKELAEKEGIEKVEVKVEKKEDGKVTVEIRFEKNKKTIRIEFENGEVKIVEIESAG [r14_925_TrROS_Hall] | 2.62 ± 0.39 kcal/mol | – | 2.97 ± 0.72 kcal/mol

Row | Sequence | folding stability dG unfold [1] | folding stability dG unfold [2] | folding stability dG unfold [3]
24 | SAGGSAGGSAGGKIKVVFELPDAPLFLVAEADSPEELLERAVKLEEELGVPLKVVKVEGSAGGSAGGSAGGS [r10_1087_TrMRF] | -0.509 ± 0.23 kcal/mol | – | < -1 kcal/mol
25 | SAMDIEIEPTEGMMEIKLPGKEIHIMQHPNYMHIQIKYPEGEPVSIPIDPNSPPEDMIDNLLKLLEKAGSAG [r14_618_TrROS] | 0.425 ± 0.042 kcal/mol | – | -0.499 ± 0.55 kcal/mol
26 | SAGGSAGGSAGMELAEEVARKGKPGTLVTFTPPGGRVQLATVRGDEVTPSGLSPDYSVTLTSAGGSAGGSAG [r3_244_JUSTAS] | -0.371 ± 0.26 kcal/mol | – | < -1 kcal/mol
27 | SAGGSAPVTPDELVERVMQYIQGQNGMPPGDTPEQMRDNGMPIKIPITVEDPDGEPIAEVEIEFPMSAGGSA [r15_391_TrROS] | 0.637 ± 0.054 kcal/mol | – | -0.0929 ± 0.24 kcal/mol
28 | SAGGSAGGDGDFRVSIDPEELPDGQEYKISIQSPDGKPIAEIPIRIPLPPPKPERDDNGKPKPVSAGGSAGG [r6_487_TrROS] | 0.844 ± 0.025 kcal/mol | – | 0.216 ± 0.099 kcal/mol
29 | SAGGSAGGSKKVVTYESVTLTVLVERTLPDPEGNPVTTTRVVEEPVRVTKVDFDTKVETYVVGSAGGSAGGS [r20_58_JUSTAS] | -0.0343 ± 0.14 kcal/mol | – | -0.623 ± 0.33 kcal/mol
30 | KTYTIDEIAEKLGMSKEELKNMSAEEIKEALKKLLPPEEIEKVEISYNEKDKKVTITVTLKNGEKVEITIDS [r1_340_TrROS_Hall] | 4.04 ± 0.71 kcal/mol | 5.06 ± 0.23 kcal/mol | –
31 | SAGGMTKPTSSPSPLDPSTPPEEWIAAIEKELPPDWRIVEPRPRPGPRLVTVLAEDPNSGKRVILRASAGGS [r16_250_JUSTAS] | -0.989 ± 0.55 kcal/mol | – | < -1 kcal/mol
32 | SAGEELLREIAKKLNLPEGAEIVKVEIKVEEKDGRLRITITITVRNKETGELKTIEIEIEIELPEEEEESAG [r5_94_TrROS_Hall] | 3.9 ± 0.27 kcal/mol | – | 4.01 ± 0.43 kcal/mol
33 | SAGGAVTSVSPGNGTTTVTVPISVPGSPVTLNIPTPDATLTPDPSGTVTVTLPPNGTYSITITGPRSDSAGG [r19_227_JUSTAS] | -0.688 ± 0.16 kcal/mol | – | < -1 kcal/mol
34 | SAGGSAGGSAGGTIRDAVKEGKPFKIRMRGKKGKTHTVTIRPDKPVKLPGISSIQVERDSAGGSAGGSAGGS [r10_700_TrROS] | -0.285 ± 0.27 kcal/mol | – | -0.707 ± 0.8 kcal/mol
35 | SAGGSAGGSAGGSKKTLPFPSVEDVVKYLKDLGLKDVKVDLPPGDLTINLDEIEEALKESAGGSAGGSAGGS [r4_101_TrMRF] | -0.957 ± 0.57 kcal/mol | – | < -1 kcal/mol
36 | SAGGSAGGSAGTTTKITEIKELPTDYVELTMKYPDGTTIKKLIPKSIYKDLPVSSTFSGGSAGGSAGGSAGG [r11_943_JUSTAS] | -0.0564 ± 0.14 kcal/mol | – | < -1 kcal/mol
37 | SAGGSAGGSAGPEIRVDDLEDGVVRITTVNVDPSTGAPVATTTTTLPRESLSPEVVALLSSAGGSAGGSAGG [r11_376_JUSTAS] | 0.046 ± 0.038 kcal/mol | – | < -1 kcal/mol
38 | SAGGSAGGSSPPVVTVEKYSEEPSPGVLRAVIRHPDGKEIVVTFEDLSPEEAKARAEEVAKLGSAGGSAGGS [r20_181_JUSTAS] | 0.00637 ± 0.068 kcal/mol | – | < -1 kcal/mol
39 | SAGGSSIEEIKEALKKGYNIKITPTTGTSTLVPVEELIKDPNITPETSLSDLGIKEITLIPPKNGKLVSAGG [r13_587_JUSTAS] | 0.0152 ± 0.075 kcal/mol | – | -0.257 ± 0.25 kcal/mol
40 | SAGGSAGGSSMPVKVTRTPVPSSAPPSTEFLETVTYPDGTVTTYRFRRDDGSVTSVRVSTSPASAGGSAGGS [r12_1049_JUSTAS] | -0.535 ± 0.71 kcal/mol | – | < -1 kcal/mol
41 | SFRIEPDPDGTVTVRIPKDFPNKPAEEIADYIQKAFGPGMKIDKDIKIEPDPENGWVEITVKVKLPPGAKSA [r9_1011_TrROS] | 0.913 ± 0.16 kcal/mol | – | 0.0899 ± 0.33 kcal/mol
42 | SAGGSSIPRALLEAMPPDAELEFEDPSSNVRIKVTRLGPDRLEITTTVYPPGPDTPVSSETTTDPLASAGGS [r16_163_JUSTAS] | 0.371 ± 0.11 kcal/mol | – | -0.124 ± 0.28 kcal/mol
43 | SAGGFKITEVEKDEKKGYPWVSIRIPPKSTLKKLKNMPGPVRIHNPEPGQWIHMPVDDPEEFLDKLLKSAGG [r13_604_TrROS] | 0.274 ± 0.18 kcal/mol | – | -0.516 ± 0.94 kcal/mol
44 | SAGMSLKLEVPIDGHMIEVTVHPSPPRATAKYPEFDATAEATISEPGLINLTITDPKTGKPYPLDVTLPSAG [r14_656_JUSTAS] | 0.621 ± 0.023 kcal/mol | – | 0.152 ± 0.1 kcal/mol
45 | SAGMTVEEVAAEIIASHPPSSTSVTLEVDVGPKPVRVTVEILPDPETGRPVPRVTVTDPNKNVTTEYVVSAG [r5_236_JUSTAS] | -0.173 ± 0.052 kcal/mol | – | -0.632 ± 0.39 kcal/mol
46 | SAGGSAGGSAGSLPEKLKEAFPDLGVTVTSVDPSGTVTVEVDGPEEVKEKVEKAVAEILKSAGGSAGGSAGG [r11_418_JUSTAS] | -0.576 ± 0.33 kcal/mol | – | < -1 kcal/mol
